Source: patent US20240417469A1 (CONCEPT TO MEDICINE BIOTECH, published 2024)
Residue numbers refer to the chain shown, from its start.

B1: Hu153A6B1-16 (antibody, V domains shown)
VH: EVQLQESGPGLVKPSETLSLTCTVSGGSISSYNIHWVRQPPGKGLEWMGRIRYNGDTSYNSALKSRLTISRDTSKNQFSLKLSSVTAADTAVYYCTRGPYGGSREPLFDYWGQGTMVTVSS
VL: DIQMTQSPSSLSASVGDRVTITCKTSQNINKYLNWFQQKPGKAPKLLIYTTNNLQTGIPSRFSGSGSGTDFTLTISSLQPEDFATYFCLQHGSGYTFGQGTKLEIK
notes: humanized mAb
B2: Hu155A9B1-3 (antibody, V domains shown)
VH: B1 VH with I34V, I51V, T96A, R104S
VL: B1 VL with T25A, F36Y, K45R, I58V, F87Y, G92N
notes: humanized mAb
B3: Hu155A9B1-5 (antibody, V domains shown)
VH: B1 VH with G27F, I34V, I51V, F78A, R104S
VL: B1 VL with T25A, F36Y, K45R, I58V, F87Y, G92N
notes: humanized mAb; also called 155z5
B4: Hu155A9B1-7 (antibody, V domains shown)
VH: B1 VH with I34V, V37I, M48I, I51V, L67V, R71V, T96A, R104S
VL: B1 VL with T25A, K45R, F87Y, G92N
notes: humanized mAb
B5: Hu155A9B1-15 (antibody, V domains shown)
VH: B1 VH with I34V, I51V, T96A, R104S
VL: B1 VL with T25A, K45R, G92N
notes: humanized mAb
B6: Hu153A6B1-18 (antibody, V domains shown)
VH: B1 VH with G27F, I29L, S30T, F78V
VL: B1 VL
notes: humanized mAb
B7: Hu155A9B1-8 (antibody, V domains shown)
VH: B1 VH with I34V, M48I, I51V, L67V, T96A, R104S
VL: B1 VL with T25A, K45R, F87Y, G92N
notes: humanized mAb; also called 155z8
B8: Hu155A9B1-14 (antibody, V domains shown)
VH: B1 VH with I34V, M48I, I51V, L67V, T96A, R104S
VL: B1 VL with T25A, K45R, G92N
notes: humanized mAb
B9: Hu155A9B1-10 (antibody, V domains shown)
VH: B1 VH with I34V, I51V, R104S
VL: B1 VL with T25A, K45R, F87Y, G92N
notes: humanized mAb
B10: Hu155A9B1-11 (antibody, V domains shown)
VH: B1 VH with G27F, I34V, I51V, F78A, R104S
VL: B1 VL with T25A, K45R, F87Y, G92N
notes: humanized mAb
B11: Hu155A9B1-4 (antibody, V domains shown)
VH: B1 VH with I34V, I51V, R104S
VL: B1 VL with T25A, F36Y, K45R, I58V, F87Y, G92N
notes: humanized mAb
B12: Hu155A9B1-2 (antibody, V domains shown)
VH: B1 VH with I34V, M48I, I51V, L67V, T96A, R104S
VL: B1 VL with T25A, F36Y, K45R, I58V, F87Y, G92N
notes: humanized mAb
B13: Hu153A6B1-17 (antibody, V domains shown)
VH: B1 VH with G27F, F78V
VL: B1 VL
notes: humanized mAb
B14: Hu155A9B1-9 (antibody, V domains shown)
VH: B1 VH with I34V, I51V, T96A, R104S
VL: B1 VL with T25A, K45R, F87Y, G92N
notes: humanized mAb
B15: Hu155A9B1-18 (antibody, V domains shown)
VH: B1 VH with G27F, I29L, S30T, I34V, I51V, F78A, R104S
VL: B1 VL with T25A, K45R, G92N
notes: humanized mAb
B16: Hu155A9B1-13 (antibody, V domains shown)
VH: B1 VH with I34V, V37I, M48I, I51V, L67V, R71V, T96A, R104S
VL: B1 VL with T25A, K45R, G92N
notes: humanized mAb
B17: Hu155A9B1-12 (antibody, V domains shown)
VH: B1 VH with G27F, I29L, S30T, I34V, I51V, F78A, R104S
VL: B1 VL with T25A, K45R, F87Y, G92N
notes: humanized mAb
B18: Hu155A9B1-17 (antibody, V domains shown)
VH: B1 VH with G27F, I34V, I51V, F78A, R104S
VL: B1 VL with T25A, K45R, G92N
notes: humanized mAb
B19: Hu155A9B1-1 (antibody, V domains shown)
VH: B1 VH with I34V, V37I, M48I, I51V, L67V, R71V, T96A, R104S
VL: B1 VL with T25A, F36Y, K45R, I58V, F87Y, G92N
notes: humanized mAb
B20: Hu155A9B1-16 (antibody, V domains shown)
VH: B1 VH with I34V, I51V, R104S
VL: B1 VL with T25A, K45R, G92N
notes: humanized mAb; also called 155z16

Experiments:
[1] = target: T1, human CD3 on cells (human PBMC; Jurkat TCR/CD3 NFAT reporter cells) (human, UniProt P07766 23-207; P04234 22-171; P09693 23-182); experiment: cell-based or functional assay
T1 sequence (P07766 23-207, chain 1 of 3): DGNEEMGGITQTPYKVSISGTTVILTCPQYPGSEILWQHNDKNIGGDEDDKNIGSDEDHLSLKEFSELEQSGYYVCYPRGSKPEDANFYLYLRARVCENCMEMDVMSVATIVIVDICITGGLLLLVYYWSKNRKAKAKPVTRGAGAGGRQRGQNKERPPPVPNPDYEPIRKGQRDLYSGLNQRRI
T1 sequence (P04234 22-171, chain 2 of 3): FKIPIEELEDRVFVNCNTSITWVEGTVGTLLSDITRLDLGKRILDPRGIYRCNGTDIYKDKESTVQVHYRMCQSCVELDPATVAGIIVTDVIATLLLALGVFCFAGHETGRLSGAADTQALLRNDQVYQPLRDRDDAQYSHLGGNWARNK
T1 sequence (P09693 23-182, chain 3 of 3): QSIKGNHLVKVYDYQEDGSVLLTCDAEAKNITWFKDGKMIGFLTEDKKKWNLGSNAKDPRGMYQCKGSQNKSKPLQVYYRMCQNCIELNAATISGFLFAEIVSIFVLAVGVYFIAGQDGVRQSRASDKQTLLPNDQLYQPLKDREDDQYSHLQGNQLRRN

human CD3 protein = target: T2, human CD3 protein (human, UniProt P07766 23-126; P04234 22-105); experiment: ELISA, plate-coated CD3;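 also: binding to plate-immobilized human CD3 protein, bound antibody detected with peroxidase-labelled anti-human IgG and TMB, read as absorbance at 450 nm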
T2 construct: ELISA coating protein; also called Human CD3D & CD3E Heterodimer Protein
T2 sequence (P07766 23-126 limits assumed, chain 1 of 2): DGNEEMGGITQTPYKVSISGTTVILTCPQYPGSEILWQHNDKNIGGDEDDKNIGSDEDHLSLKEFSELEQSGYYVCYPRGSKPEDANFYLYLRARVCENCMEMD
T2 sequence (P04234 22-105 limits assumed, chain 2 of 2): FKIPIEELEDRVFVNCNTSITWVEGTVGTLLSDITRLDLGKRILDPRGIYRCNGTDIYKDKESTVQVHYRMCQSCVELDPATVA

[2] = target: T3, recombinant CD3D&E protein (human CD3-his tag) (human, UniProt P04234 22-105; P07766 23-126, limits assumed); experiment: SPR Biacore, Ab captured on Protein A;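 also: humanized antibodies on a Protein A chip, human CD3-his analyte flowed over in serial dilutions for 3 min, dissociation tracked 120–360 s on a Biacore T200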
T3 construct: Analyte in Biacore; also called CD3D&E-His; CD3d&ε-His
T3 sequence (P04234 22-105 limits assumed, chain 1 of 2): as the sequence (P04234 22-105 limits assumed, chain 2 of 2) above
T3 sequence (P07766 23-126 limits assumed, chain 2 of 2): as the sequence (P07766 23-126 limits assumed, chain 1 of 2) above

[3] = target: T1, human CD3 on cells (human PBMC; Jurkat …); experiment: cell-based or functional assay; remark: listed apart in the source
For Emax in this document: unit not given here.

Binder	% of SP34 [1]	Emax [1]	EC50 (human CD3 protein)	Kd [2]	koff [2]	kon [2]	CD3-NFAT Activity by CD3 mAb [3]
B1	71.9%	3970	3.44 ng/mL	61.9 nM	0.111 s⁻¹	1.8e+06 M⁻¹ s⁻¹	> 50 % SP34
B2	12.8%	648	32.2 ng/mL	18 nM	0.00667 s⁻¹	370000 M⁻¹ s⁻¹	≤ 50 % SP34
B3	79.9%	4050	3.27 ng/mL	61.4 nM	0.00637 s⁻¹	104000 M⁻¹ s⁻¹	> 50 % SP34
B4	22.6%	1140	136 ng/mL	13.5 nM	0.00547 s⁻¹	406000 M⁻¹ s⁻¹	≤ 50 % SP34
B5	20.1%	1150	6.51 ng/mL	53.5 nM	0.0152 s⁻¹	285000 M⁻¹ s⁻¹	≤ 50 % SP34
B6	88.8%	4900	2.82 ng/mL	12.5 nM	0.00107 s⁻¹	85400 M⁻¹ s⁻¹	> 50 % SP34
B7	26.2%	1330	5.84 ng/mL	70.2 nM	0.0159 s⁻¹	226000 M⁻¹ s⁻¹	≤ 50 % SP34
B8	19.1%	1100	5.66 ng/mL	79.2 nM	0.0187 s⁻¹	236000 M⁻¹ s⁻¹	≤ 50 % SP34
B9	24%	1380	6.04 ng/mL	80.5 nM	0.015 s⁻¹	187000 M⁻¹ s⁻¹	≤ 50 % SP34
B10	78.4%	4500	3.2 ng/mL	44.1 nM	0.00306 s⁻¹	69300 M⁻¹ s⁻¹	> 50 % SP34
B11	14.8%	752	16.4 ng/mL	15.8 nM	0.00648 s⁻¹	409000 M⁻¹ s⁻¹	≤ 50 % SP34
B12	12.9%	656	26.4 ng/mL	15.8 nM	0.00704 s⁻¹	445000 M⁻¹ s⁻¹	≤ 50 % SP34
B13	77.2%	4260	2.89 ng/mL	11.1 nM	0.00106 s⁻¹	95400 M⁻¹ s⁻¹	> 50 % SP34
B14	34.9%	1770	6.28 ng/mL	55 nM	0.0155 s⁻¹	282000 M⁻¹ s⁻¹	≤ 50 % SP34
B15	74%	4250	1.95 ng/mL	51.4 nM	0.00291 s⁻¹	56600 M⁻¹ s⁻¹	> 50 % SP34
B16	18.4%	1060	124 ng/mL	12.6 nM	0.00354 s⁻¹	280000 M⁻¹ s⁻¹	≤ 50 % SP34
B17	72.4%	4160	3.35 ng/mL	51.2 nM	0.00286 s⁻¹	55900 M⁻¹ s⁻¹	> 50 % SP34
B18	76%	4370	3.07 ng/mL	43.6 nM	0.00307 s⁻¹	70400 M⁻¹ s⁻¹	> 50 % SP34
B19	14.2%	720	428 ng/mL	40.4 nM	0.00441 s⁻¹	109000 M⁻¹ s⁻¹	≤ 50 % SP34
B20	21.6%	1240	7.28 ng/mL	95.6 nM	0.0165 s⁻¹	173000 M⁻¹ s⁻¹	≤ 50 % SP34
